From patent publication EP4755393A1, “USE OF PROTON PUMP REGULATOR IN PREPARATION OF DRUG” (Shanghai Quietd Biotechnology Co., Ltd., priority 2023, dated 2025)
Ends that are not written are not given here.

How the values were obtained:
HT22 cells = assay: Quantitative detection of ROS (DCFH-DA) in the oxygen-glucose deprivation (OGD) cell model; type: cell-based; conditions: Mus musculus, HT-22, OGD 16 h, 24 h reoxygenation, OGD plus vehicle = 100%, mean ± standard deviation, read-out: inhibition rate of ROS
Method: Cell culture: Mouse hippocampal HT22 cells were cultured in DMEM and 10% serum at 37°C in a 5% CO2 incubator.
Oxygen-glucose deprivation (OGD) cell model: HT22 cells were seeded at a density of about 1 ×10^5 into 96-well plates and cultured for 24 h in a 37°C incubator with 5% CO2/95% air in DMEM and 10% serum. After placing HT22 cells in glucose-free medium, they were transferred to a sealed container containing a 5% CO2/95% N2 mixture and incubated at 37°C for 16 h. The glucose-free medium was then replaced with a normal medium containing glucose, and the mixture was incubated for 24 h in a 37°C incubator containing 5% CO2/95% air for reoxygenation.
Experimental grouping: Normally cultured HT22 cells were used as the control group. […] After 24 h of reoxygenation, quantitative detection of ROS was performed.
Quantitative detection of ROS: Reactive oxygen species were detected using the Beyotime reactive oxygen species detection kit and the fluorescent probe DCFH-DA. […] Observation was performed under a fluorescence microscope, followed by quantification of the average fluorescence intensity using Image J software.
Data analysis: Three parallel experiments were performed. The average fluorescence intensity of the OGD plus vehicle group was set as the standard value of 100% for normalization of the fluorescence intensity of cells in each group. […]

Male SD rats [1] = assay: Neurological function scoring after MCAO (Middle Cerebral Artery Occlusion); type: in vivo; conditions: 5 mpk, from 3 days prior to surgery once daily plus doses on day of surgery; 24 h after MCAO; vs Model + QD202 placebo; FIG. 16
Excerpt: (§1) Experimental protocol: Male SD rats (260-280 g) were randomly assigned to the following groups: Sham + QD202 placebo group (n=6), Model + QD202 placebo group (n=6), positive control group (Edaravone-5 mpk, n=6), QD202-1 mpk group (n=6), QD202-3 mpk group (n=6), QD202-5 mpk group (n=6). The sham group served as the sham-operated group, while rats in the model group were subjected to Middle Cerebral Artery Occlusion (MCAO) for model establishment. For the edaravone-treated group, administration was initiated 3 days prior to surgery, once daily; on the day of surgery, a total of […] were given (30 min before surgery, 30 min after surgery, and 60 min after surgery). Rats in the QD202 groups received a single dose at 30 min after surgery. At 24 h postoperatively, neurological function was scored according to Table 3. Subsequently, the whole brain tissues of the rats were harvested for TTC staining to evaluate the infarct volume. […]

Male SD rats [2] = assay: TTC staining of infarct volume after MCAO; type: in vivo; conditions: 5 mpk, from 3 days prior to surgery once daily plus doses on day of surgery, 24 h after MCAO, vs Model + QD202 placebo, FIG. 17
Excerpt: as §1

hATP6V1B2 = hATP6V1B2 (Homo sapiens, UniProt P21281); assay: Co-immunoprecipitation of Myc-tagged hATP6V1B2 with GFP-tagged QD202 and site mutants (HEK 293 lysates, western blot); type: binding; conditions: expressed from pEGFP-N3 plasmids in HEK 293, anti-GFP IP, FIG. 7A, 7B
Method: Expression plasmids of hATP6V1B2, QD202, site-mutated QD202(D15A), site-mutated QD202(V16A), site-mutated QD202(P13A), and site-mutated QD202(V14A) were constructed respectively. The hATP6V1B2 was co-transfected into HEK 293 cells with the expression plasmids of QD202, site-mutated QD202(D15A), site-mutated QD202(V16A), site-mutated QD202(P13A) and site-mutated QD202(V14A), respectively, and cellular proteins were extracted 48 h after transfection. Table 1: Plasmid sequences
Protein extraction was performed using Pierce RIPA lysis buffer. Taking cells in a 60 mm culture dish as an example, 500 µL of Pierce RIPA lysis buffer containing protease inhibitors was added. Cells were collected and transferred to a clean 1.5 mL EP tube using a cell scraper. After mixing for 1 h on a rotary mixer at 4°C, the cells were centrifuged at 13,000 rpm at 4°C for 10 min to remove cell debris. The hATP6V1B2 was equally divided into […], which were then mixed separately with the cell lysates transfected with QD202, site-mutated QD202(P13A), site-mutated QD202(V14A), site-mutated QD202(D15A), and site-mutated QD202(V16A), 30 µL of the supernatant was taken and mixed with 10 µL of 4× loading buffer, followed by boiling at 100°C for 5 min and storage at -20°C; 2 µL of the antibody (Anti-GFP, Roche, 11814460001) was added to the remaining 470 µL of the protein lysate, and the mixture was incubated overnight (about 16-18 h) on a rotary shaker at 4°C. 30 µL of Protein G Sepharose beads (Roche, 11243233001) were placed in an EP tube and washed three times with Pierce RIPA lysis buffer to eliminate interference from the original stock solution. The protein that had been incubated with the antibody overnight was added to the Sepharose beads, followed by mixing and incubation at 4°C for 2 h to ensure sufficient binding between the antibody and the protein. The mixture was centrifuged at 4000 rpm for 1 min. The supernatant was aspirated off, followed by the addition of 600 µL of Pierce RIPA lysis buffer. The tube was gently inverted, followed by centrifugation to collect the supernatant. The above steps were repeated three times to wash away non-specifically bound proteins. Finally, 30 µL of 1×loading buffer was added, the mixture was mixed well, heated at 60°C for 20 min to denature the protein, and then stored at -20°C. The protein was examined by western blot (Myc-Tag (9B11) Mouse mAb, CST, 2276S; Anti-GFP, Roche, 11814460001).
The hATP6V1B2 was co-transfected into the host cell line HEK 293 with the expression plasmids of QD202, site-mutated QD202(P13A), site-mutated QD202(V14A), site-mutated QD202(D15A) and site-mutated QD202(V16A), respectively. […] It is therefore hypothesized that valine at position 16 of QD202 is one of the key amino acids for the binding between hATP6V1B2 and QD202, whereas proline at position 13, valine at position 14 and aspartic acid at position 15 can be replaced with alanine, as illustrated in FIG. 7A and FIG. 7B.

Sequence of hATP6V1B2 (P21281 whole entry): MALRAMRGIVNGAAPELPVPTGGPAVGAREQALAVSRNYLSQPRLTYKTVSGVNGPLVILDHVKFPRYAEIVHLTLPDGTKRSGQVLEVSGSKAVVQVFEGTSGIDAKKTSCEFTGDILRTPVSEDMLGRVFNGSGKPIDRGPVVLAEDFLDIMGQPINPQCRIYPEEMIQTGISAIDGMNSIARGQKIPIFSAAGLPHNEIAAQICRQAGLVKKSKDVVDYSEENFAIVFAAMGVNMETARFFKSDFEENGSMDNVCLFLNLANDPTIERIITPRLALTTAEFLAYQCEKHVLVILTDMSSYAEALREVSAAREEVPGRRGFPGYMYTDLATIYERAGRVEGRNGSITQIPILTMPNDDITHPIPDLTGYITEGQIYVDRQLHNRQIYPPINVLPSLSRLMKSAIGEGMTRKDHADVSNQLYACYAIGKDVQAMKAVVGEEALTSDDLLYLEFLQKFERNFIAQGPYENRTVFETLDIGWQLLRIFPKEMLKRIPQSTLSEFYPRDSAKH

Row | Compound | inhibition at 200 µM (HT22 cells) | neurobehavioral score (Male SD rats [1]) | infarct volume (Male SD rats [2]) | binding to Myc-tagged hATP6V1B2 (co-immunoprecipitation) (hATP6V1B2)
1 | CC1=NN(c2ccccc2)C(=O)C1 [Edaravone] | 63.8 ± 10.9% | significantly lower than that of the Model + QD202 placebo group with a statistically significant difference (p<0.01) | significantly lower than that of the Model + QD202 placebo group, with a statistically significant difference (p<0.01) | 
2 | QD202(D15A): QD202 in which aspartic acid at position 15 was substituted with alanine; expressed from pEGFP-N3 plasmid (YGRKKRRQRRRSPVAVVCS; left off: large carriers) |  |  |  | also bind to
3 | QD202(P13A): QD202 in which proline at position 13 was substituted with alanine; expressed from pEGFP-N3 plasmid (YGRKKRRQRRRSAVDVVCS; not fully specified) |  |  |  | also bind to
4 | QD202(V14A): QD202 in which valine at position 14 was substituted with alanine; expressed from pEGFP-N3 plasmid (YGRKKRRQRRRSPADVVCS; not fully specified) |  |  |  | also bind to
5 | QD202(V16A): QD202 in which valine at position 16 was substituted with alanine; expressed from pEGFP-N3 plasmid (YGRKKRRQRRRSPVDAVCS; not fully specified) |  |  |  | significantly reduced
